{"source": "paper PMC11641334", "about": "“The Effect of CBM1 and Linker on the Oxidase, Peroxidase and Monooxygenase Activities of AA9 LPMOs: Insight into Their Correlation with the Nature of Reductants and Crystallinity of Celluloses” (International Journal of Molecular Sciences, 2024)", "molecules": {"B1": {"name": "AoLPMO9B (Aspergillus oryzae RIB40) (protein)", "chain": "HGHVSNIVINGVYYEGFDINSFPYMGESAPTVAAWTTPNTGNGPLAPDDYSSPDIICHQNATAGKGYVEVNAGDRISLQWTPWPESHHGPVVDYLARCEPNCASVDKTSLEFFKIDGVGIVDGSSVPGVWGDDQLIQNNNTWLVEIPKSIAPGYYVLRHELIALHSAGTEGGAQNYPSCFNLKVNGEGTDKPAGVVGTELYTPTGDGIIFNIYQTVSEYPVPGPTLYSGAATGVTQAASTVTSTGTALTVGAAATTPASGSGASSSAAPSSSAAATPSSSAAPSSSAAARR", "notes": "wild type, C1/C4-oxidizing, no CBM1; Pichia pastoris X33, N-glycosylated, Ni-NTA, copper-saturated"}, "B2": {"name": "NcLPMO9C (Neurospora crassa OR74A) (protein)", "chain": "HTIFQKVSVNGADQGQLKGIRAPANNNPVTDVMSSDIICNAVTMKDSNVLTVPAGAKVGHFWGHEIGGAAGPNDADNPIAASHKGPIMVYLAKVDNAATTGTSGLKWFKVAEAGLSNGKWAVDDLIANNGWSYFDMPTCIAPGQYLMRAELIALHNAGSQAGAQFYIGCAQINVTGGGSASPSNTVSFPGAYSASDPGILINIYGGSGKTDNGGKPYQIPGPALFTCPAGGSGGSSPAPATTASTPKPTSASAPKPVSTTASTPKPTNGSGSGTGAAHSTKCGGSKPAATTKASNPQPTNGGNSAVRAAALYGQCGGKGWTGPTSCASGTCKFSNDWYSQCLP", "notes": "wild type with 79-residue linker and CBM1, C4-oxidizing; Pichia pastoris X33, N-glycosylated, Ni-NTA, copper-saturated"}, "B3": {"name": "AoLPMO9A (Aspergillus oryzae RIB40) (protein)", "chain": "HGYVSGVVIDGQYYGGYLVDKYAYSDNAPDTIGWTTSATDLGFVDGTGYQSPDIICHKDGAPGALTAEVAAGGKIELQWTEWPESHHGPVLNYLAPCGGECSAVDKTTLEFFKIEAKGLIDGTTPPGQWATDDLISNNNSYTVTIPTSIQEGNYVLRHEIIGLHSAGQKDGAQNYPQCINIKVTGGGDATPAGTAGEALYKDTDAGILFDIYSDLSGGYPIPGPEVFSA", "notes": "as for B1"}}, "key": {"NcLPMO9C∆CBM": {"target": "T1, NcLPMO9C∆CBM (Neurospora crassa, UniProt Q7SHI8)", "T1 construct": "gene gh61-3; Pichia pastoris X33, copper-saturated", "test": "peroxidase assay, absorbance at […] nm (coerulignone), Michaelis-Menten fit", "type": "biochemical", "settings": "5 mM H2O2 co-substrate; copper-saturated enzyme 1 µM; 100 mM sodium phosphate pH 6.0; 37 °C; read-out: 2,6-DMP / Km"}, "purified protein [1]": {"substrate": "COc1cccc(OC)c1O", "test": "purified protein", "type": "biochemical, Aspergillus oryzae", "settings": "5 mM H2O2 co-substrate, copper-saturated enzyme 1 µM, 100 mM sodium phosphate pH 6.0, 37 °C"}, "purified protein [2]": {"substrate": "COc1cccc(OC)c1O", "test": "purified protein", "type": "biochemical, Neurospora crassa", "settings": "5 mM H2O2 co-substrate, copper-saturated enzyme 1 µM, 100 mM sodium phosphate pH 6.0, 37 °C"}}, "data": [{"molecule": "COc1cccc(OC)c1O", "note": "[2,6-DMP]", "values": [{"measurement": "Km", "setting": "NcLPMO9C∆CBM", "result": "1280 ± 120", "unit": "µM"}]}, {"molecule": "B1", "values": [{"measurement": "Km", "setting": "purified protein [1]", "result": "1550 ± 140", "unit": "µM"}, {"measurement": "kcat", "setting": "purified protein [1]", "result": "1.33 ± 0.04", "unit": "s⁻¹"}]}, {"molecule": "B2", "values": [{"measurement": "Km", "setting": "purified protein [2]", "result": "940 ± 90", "unit": "µM"}, {"measurement": "kcat", "setting": "purified protein [2]", "result": "0.58 ± 0.02", "unit": "s⁻¹"}]}, {"molecule": "B3", "values": [{"measurement": "Km", "setting": "purified protein [1]", "result": "1760 ± 310", "unit": "µM"}, {"measurement": "kcat", "setting": "purified protein [1]", "result": "1.48 ± 0.09", "unit": "s⁻¹"}]}]}
